{"source": "patent US20170101472A1", "about": "(Regeneron, published 2017)", "binders": {"B1": {"name": "H4H17819P (antibody, human IgG4, V domains shown)", "VH": "EVQLVESGGGLVQPGGSLRLSCVASGFTFSLYAMTWVRQVPGKGLEWVSTISGSGGGTYYTDSVKGRFTISRDNSKNTLYLQMNSLRADDTAVFYCTKESTTGTYSYFYGMDVWGQGTTVTVSS", "VL": "DIQMTQSPSSLSASVGDRVTITCRASQTISSYLNWYQQKPGKAPKLLIYAASSLQSGVPSRFSGSGSGTDFTLTLSGLQPEDFATYYCQQSYSTPLTFGGGTKVEIK", "notes": "H4H = human IgG4 Fc with S108P hinge mutation"}, "B2": {"name": "H4H17823P (antibody, human IgG4, V domains shown)", "VH": "EVQLLESGGGLVQPGGSLRLSCAASGFTFRSYAMSWVRQAPGKGLEWVSVISGGGGRTYYTDSVKGRFTISRDNSKSMLYLQMNSLRAEDTAIYYCAKERVTGIDHYYYGVDVWGQGTTVTVSS", "VL": "B1 VL with T28S, A51T, G66A, T74A, L75I, G77S, S93T", "notes": "as for B1"}, "B3": {"name": "H4sH15462P (antibody, V domains shown)", "VH": "QVQLVQSGAEVKKPGASVKVSCKASGYTFTNYYIHWVRQAPGQGLDWMGIINPGGGNTNYAQKFLGRVTMTRDTSTTTVYMELSSLRSEDTAIYYCARENWNSYFDNWGQGTLVTVSS", "VL": "not shown", "notes": "H4sH = human IgG4 Fc with 2 or more amino acid changes as disclosed in US20140243504"}, "B4": {"name": "H4H15462P (antibody, human IgG4, V domains shown)", "VH": "B3 VH", "VL": "not shown", "notes": "as for B1"}, "B5": {"name": "H4H17826P2 (antibody, human IgG4, V domains shown)", "VH": "EVQLVESGGGLVQPGGSLRLSCAASGFTFSSYEMNWVRQAPGKGLEWVSYISSSGNTKDYAGSVKGRVTISRDNAKNLLYLQMNSLRAEDTAVYHCARDGGHYDILTGSMSYYYYALDVWGQGTTVTVSS", "VL": "not shown", "notes": "as for B1"}, "B6": {"name": "H4H17828P2 (antibody, human IgG4, V domains shown)", "VH": "EVQLVESGGGLVQPGGSLRLSCAASGFTFKTYAMSWVRQAPGRGLEWVSGISGSGSTSYYADSVKGRFTISRDNYKKTLSLQMNSLRAEDTAVYYCALDIMATVGGLFNNWGQGTLVTVSS", "VL": "not shown", "notes": "as for B1"}, "B7": {"name": "H4sH15479P (antibody, V domains shown)", "VH": "QVQLQQWGAGLLNPSETLSLTCAVYGGAFSDYYWNWIRQPPGKGLEWIGEINHRGSTNYNPSLKSRVTISVDTSKNQFSLRMSSVTAADAAVYYCARGEDYDIWNGYYQEKWGQGTLVTVSS", "VL": "EIVLTQSPATLSLSPGERATLSCRASQSISTYLAWYQQKPGQAPRLLIYDASKRATGIPARFSGSGSGTDFTLTISSLEPEDFVVYYCHQRSNWPLTFGGGTKVEIK"}}, "note": "Positions count from the first letter of the chain named. Names may count otherwise."}
{"biological_target": "T1, human LAG3 chimera (extracellular domain of human LAG3 and trans-membrane/cytoplasmic domain of human CD300a) … (human, UniProt P18627 23-450; Q9UGN4 181-299, limits assumed)", "T1 sequence (looked up)": "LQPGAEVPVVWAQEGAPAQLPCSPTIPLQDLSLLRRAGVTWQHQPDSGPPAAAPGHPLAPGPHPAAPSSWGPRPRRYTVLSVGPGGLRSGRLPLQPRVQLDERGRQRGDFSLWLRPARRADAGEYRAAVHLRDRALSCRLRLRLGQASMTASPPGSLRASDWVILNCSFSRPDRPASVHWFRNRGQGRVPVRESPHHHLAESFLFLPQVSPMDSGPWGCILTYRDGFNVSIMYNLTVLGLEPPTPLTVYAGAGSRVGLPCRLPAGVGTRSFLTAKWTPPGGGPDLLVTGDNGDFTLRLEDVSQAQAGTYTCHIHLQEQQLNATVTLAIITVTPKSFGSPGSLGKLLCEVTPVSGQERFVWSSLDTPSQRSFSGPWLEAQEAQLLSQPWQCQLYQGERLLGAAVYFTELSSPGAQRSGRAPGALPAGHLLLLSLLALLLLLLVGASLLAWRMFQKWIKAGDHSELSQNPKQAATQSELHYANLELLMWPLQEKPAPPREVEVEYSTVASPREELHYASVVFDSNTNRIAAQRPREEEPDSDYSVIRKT", "assay": "cell-based or functional assay", "units": {"EC50, AP1-Luc signaling, bispecific mode": "nM", "EC50, AP1-Luc signaling, peptide mode": "nM"}}
{"binder": "B1", "EC50, AP1-Luc signaling, bispecific mode": "> 100", "EC50, AP1-Luc signaling, peptide mode": 2.12}
{"binder": "B2", "EC50, AP1-Luc signaling, bispecific mode": "> 100", "EC50, AP1-Luc signaling, peptide mode": 0.688}
{"binder": "B3", "EC50, AP1-Luc signaling, bispecific mode": 0.148, "EC50, AP1-Luc signaling, peptide mode": 0.486}
{"binder": "B4", "EC50, AP1-Luc signaling, bispecific mode": 0.224, "EC50, AP1-Luc signaling, peptide mode": 0.344}
{"binder": "B5", "EC50, AP1-Luc signaling, bispecific mode": 266, "EC50, AP1-Luc signaling, peptide mode": 8.83}
{"binder": "B6", "EC50, AP1-Luc signaling, bispecific mode": "> 100", "EC50, AP1-Luc signaling, peptide mode": 4.91}
{"binder": "B7", "EC50, AP1-Luc signaling, bispecific mode": 0.0872, "EC50, AP1-Luc signaling, peptide mode": 0.135}
{"biological_target": "T2, human LAG3 expressed on HEK293 cells (human, UniProt P18627 23-525)", "T2 construct": "also called hLAG3; HEK293/hLAG3", "T2 sequence": "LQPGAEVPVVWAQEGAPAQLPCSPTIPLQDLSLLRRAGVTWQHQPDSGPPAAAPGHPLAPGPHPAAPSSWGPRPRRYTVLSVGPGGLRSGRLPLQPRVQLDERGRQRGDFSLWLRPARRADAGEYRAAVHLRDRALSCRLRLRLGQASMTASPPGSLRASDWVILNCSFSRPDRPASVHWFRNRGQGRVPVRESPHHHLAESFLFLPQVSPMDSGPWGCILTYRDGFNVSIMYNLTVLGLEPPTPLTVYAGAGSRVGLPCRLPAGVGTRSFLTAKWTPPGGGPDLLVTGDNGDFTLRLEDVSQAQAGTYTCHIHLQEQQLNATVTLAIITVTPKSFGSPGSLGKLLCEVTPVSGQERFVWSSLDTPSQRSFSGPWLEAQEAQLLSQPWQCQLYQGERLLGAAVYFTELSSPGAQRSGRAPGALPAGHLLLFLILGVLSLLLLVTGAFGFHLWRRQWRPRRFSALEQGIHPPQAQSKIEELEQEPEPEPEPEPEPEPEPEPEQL", "assay": "flow cytometry, HEK293/hLAG3 cells", "method": "The serially diluted antibodies were added to the cell suspension and incubated for 15-30 minutes on ice. The cells were centrifuged and pellets were washed with staining buffer to remove unbound antibodies. […] The cells were centrifuged and pellets were washed with staining buffer to remove unbound secondary F(ab′)2 and fixed overnight with a 1:1 dilution of Cytofix (BD Biosciences, #554655) and staining buffer. Following day, fixed cells were centrifuged and pellets were washed with staining buffer, resuspended and filtered. Fluorescence measurements were acquired on HyperCyt® cytometer and analyzed in ForeCyt™ (IntelliCyt; Albuquerque, N. Mex.) to determine the mean fluorescence intensities (MFI). The EC₅₀ values were calculated from a four-parameter logistic equation over an 11-point response curve using GraphPad Prism. EC₅₀ was defined as the concentration of antibody at which 50% of maximal binding signal is detected. The MFI ratio for each antibody was calculated by dividing the MFI at 100 nM by MFI at 0 nM of antibody concentration.", "units": {"EC50": "nM"}}
{"binder": "B1", "EC50": 2.79, "Ratio of MFI (100 nM/0 nM)": 436}
{"binder": "B2", "EC50": 1.25, "Ratio of MFI (100 nM/0 nM)": 305}
{"binder": "B3", "EC50": 0.665, "Ratio of MFI (100 nM/0 nM)": 182}
{"binder": "B4", "EC50": 0.3, "Ratio of MFI (100 nM/0 nM)": 62.6}
{"binder": "B5", "EC50": 3.86, "Ratio of MFI (100 nM/0 nM)": 414}
{"binder": "B6", "EC50": 2.65, "Ratio of MFI (100 nM/0 nM)": 355}
{"binder": "B7", "EC50": 0.903, "Ratio of MFI (100 nM/0 nM)": 199}
{"biological_target": "T2, human LAG3 expressed on HEK293 cells", "assay": "electrochemiluminescence cell binding", "method": "To investigate the ability of a panel of anti-LAG3 monoclonal antibodies to bind cell-surface expressed LAG3, an in vitro binding assay utilizing human and monkey LAG3 expressing cell lines in an electrochemiluminescence based detection platform [Meso Scale Diagnostics, Rockville, Md.—(MSD)] was developed.\nExperiments were carried out according to following procedure. Cells from the three cell lines described above were rinsed once in 1×PBS buffer without Ca²⁺/Mg²⁺ followed by 10-minute incubation at 37° C. with Enzyme Free Cell Dissociation Solution. […] Approximately 10,000 cells per well in the cell-washing buffer were seeded into the 96-well carbon electrode plates (MULTI-ARRAY high bind plate, MSD) and incubated for 1 hour at 37° C. to allow the cells to adhere. Nonspecific binding sites were blocked by 2% BSA (w/v) in PBS for 1 hour at room temperature. […] The plates were then washed to remove the unbound antibodies using an AquaMax2000 plate washer (MDS Analytical Technologies). The plate-bound antibodies were detected with a SULFO-TAG™-conjugated anti-human IgG antibody (MSD) for 1 hour at room temperature. After washes, the plates were developed with the Read Buffer (MSD) according to manufacturer's recommended procedure and the luminescent signals were recorded with a SECTOR Imager 6000 (MSD) instrument. The direct binding signals (in relative light units—RLU) were analyzed as a function of the antibody concentration and the data were fitted with a sigmoidal (four-parameter logistic) dose-response model using Graph Pad Prism™ software. The potency of each antibody was determined by calculating EC₅₀."}
{"binder": "B1", "Ratio of 100 nM antibody binding HEK293-hLAG3 to HEK293 cells": 22.7}
{"binder": "B2", "Ratio of 100 nM antibody binding HEK293-hLAG3 to HEK293 cells": 5.3}
{"binder": "B3", "Ratio of 100 nM antibody binding HEK293-hLAG3 to HEK293 cells": 6.8}
{"binder": "B4", "Ratio of 100 nM antibody binding HEK293-hLAG3 to HEK293 cells": 2.3}
{"binder": "B5", "Ratio of 100 nM antibody binding HEK293-hLAG3 to HEK293 cells": 7}
{"binder": "B6", "Ratio of 100 nM antibody binding HEK293-hLAG3 to HEK293 cells": 8.7}
{"binder": "B7", "Ratio of 100 nM antibody binding HEK293-hLAG3 to HEK293 cells": 17.8}
{"biological_target": "T2, human LAG3 expressed on HEK293 cells", "assay": "cell adherence assay, blocks A20 (mouse MHCII) cells on HEK293-hLAG3", "method": "Cells were plated into sterile Nunclon™ Delta 96-Well MicroWell™ Black Optical Bottom Plates (Thermo Scientific). The wells from the perimeter of the plate were not included in the assay design to avoid edge effects.\nOn the day of treatment, all antibodies were serially (1:3) diluted in RPMI media (without FBS or supplements added). The 9-point dilution ranged between 45 pM to 300 nM, with the last dilution point containing no mAb. […] While the plated HEK293-LAG3 cells were incubating with the test or control antibodies, non-adherent B-cells (RAJI or A20) were labeled with Calcein AM using the following procedure. RAJI and A20 suspension cells were harvested and centrifuged at 1,200 rpm for 5 minutes. Cell pellets were resuspended in 1×PBS and counted. Cells were washed with RPMI, and resuspended in RPMI at a concentration of 10⁶ cells per 1 ml. Cells were labeled by adding 5 μL of Calcein AM per 1 ml of cell suspension and incubated for 30 min at 37° C., at 5% CO₂. […] Subsequently, 10 μL of BD Pharmingen Fc Block (0.5 mg/mL) was added per 1 ml of the Calcein AM labeled cells, which were incubated at RT for 10 minutes. The Calcein AM-stained, Fc-blocked RAJI or A20 cells were resuspended in RPMI to a final concentration of 3×10⁶ cells per 1 ml and subsequently used in the adherence assay.\nThe labeled suspension cells were incubated with the HEK293 monolayer for 1 hour at 37° C., at 5% CO₂.", "units": {"IC50": "nM"}}
{"binder": "B1", "IC50": 16}
{"binder": "B2", "IC50": 9.4}
{"binder": "B3", "IC50": 3.6}
{"binder": "B4", "IC50": 7.1}
{"binder": "B5", "IC50": 10}
{"binder": "B6", "IC50": 16}
{"binder": "B7", "IC50": 6.3}
